Reference: US12291570B2, “Treatment of metastatic pancreatic adenocarcinoma” (BioLineRx Ltd., priority 2018, dated 2025)
Square brackets hold non-standard residues; d marks the D form. Ends that are not written are not given here. 2Nal = N[C@@H](Cc1ccc2ccccc2c1)C(=O)O; Cit = NC(=O)NCCC[C@H](N)C(=O)O

Assays:
[1] = Solubility of BL-8040 powder; format: physicochemical
[2] = test system: human keratinocytes and normal human hematopoietic cells; settings: cited from earlier work
[3] = test system: metastatic pancreatic adenocarcinoma (PDAC); settings: cited from earlier work
CXCR4 = CXCR4 (Homo sapiens, UniProt P61073); settings: read-out: IC50, binds to CXCR4 with high affinity; cited from earlier work
[4] = test system: metastatic pancreatic cancer; settings: metastatic/advanced pancreatic cancer; cited from earlier work

Chain of CXCR4 (P61073 whole entry, species assumed): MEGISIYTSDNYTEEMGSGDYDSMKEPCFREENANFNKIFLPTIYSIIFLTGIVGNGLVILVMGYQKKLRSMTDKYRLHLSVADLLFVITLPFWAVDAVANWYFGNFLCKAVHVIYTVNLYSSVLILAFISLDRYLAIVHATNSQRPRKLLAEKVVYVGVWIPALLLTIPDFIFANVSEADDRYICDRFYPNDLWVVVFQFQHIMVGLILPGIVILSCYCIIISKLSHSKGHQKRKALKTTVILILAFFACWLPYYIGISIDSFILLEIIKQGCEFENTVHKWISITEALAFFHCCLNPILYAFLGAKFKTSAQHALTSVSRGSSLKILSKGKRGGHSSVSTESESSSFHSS

| Substance | solubility in 0.45% Sodium Chloride (half normal saline) ([1]; 0.45% Sodium Chloride) | solubility in water ([1]; water) | effect on viability of human keratinocytes and normal human hematopoietic cells [2] | level of effector CD8 cells that express Granzyme B in the tumor microenvironment [3] | level of myeloid derived suppressor cells (MDSCs) in the tumor microenvironment [3] | IC50 (CXCR4) | increase in median survival [4] |
| --- | --- | --- | --- | --- | --- | --- | --- |
| BL-8040 (RR[2Nal]CY[Cit]K[dK]PYR[Cit]CR-NH2; not fully specified (residue 1, N-terminus, bridges); cysteine pairing not given here) | freely soluble | freely soluble | did not affect the viability | increasing | decreasing | 0.54 to 4.5 nM |  |
| FOLFIRINOX |  |  |  |  |  |  | 4.3 months |
